Experimental findings from US20220288176 are described below.

Like-named read-outs stand apart in the source and are kept apart here.

The subject of series [1] is YTHDF2 (Homo sapiens). The settings on record: co-localization with RIG-I and YTHDF2 in HeLa.
In series [2] the test system is RIG-I (Homo sapiens). As to conditions: immunofluorescence co-localization with RIG-I and K63-polyubiquitin in HeLa.

Regarding 10% m6A circFOREIGN, the activity in series [1] (10% m6A random) came out at 65.3%.

Turning to FITC-circFOREIGN, the activity in series [2] stood at 85.5%; in series [1], 33.8%.
